In PMC10844826 (iScience, 2024):

Legend:
[1] = molecular target: GST-tagged Arabidopsis thaliana Rpn10 vWA domain (Arabidopsis thaliana) (UniProt P55034); assay: SPR
[2] = molecular target: T1, GST-tagged Arabidopsis thaliana Rpn10 vWA domain (Arabidopsis thaliana, UniProt P55034 2-193); assay: SPR
T1 sequence: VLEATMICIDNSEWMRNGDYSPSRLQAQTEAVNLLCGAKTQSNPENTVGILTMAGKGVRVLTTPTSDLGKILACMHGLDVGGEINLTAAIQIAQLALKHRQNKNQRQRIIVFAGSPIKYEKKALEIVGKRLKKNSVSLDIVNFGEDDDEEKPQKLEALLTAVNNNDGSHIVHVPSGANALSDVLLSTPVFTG

[3] = molecular target: T2, AtRpn10 vWA domain, GST removed, as in the purified complexes (Arabidopsis thaliana, UniProt P55034 2-193); assay: SEC-MALS
T2 sequence: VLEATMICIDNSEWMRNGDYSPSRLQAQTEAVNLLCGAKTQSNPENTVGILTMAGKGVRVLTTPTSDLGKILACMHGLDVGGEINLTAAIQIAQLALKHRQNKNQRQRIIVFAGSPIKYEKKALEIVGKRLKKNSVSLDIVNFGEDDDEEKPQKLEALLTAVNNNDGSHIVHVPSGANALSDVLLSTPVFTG

Molecule: onion yellows phytoplasma SAP05 (natural protein)
- Kd [1]: 398 nM

B1: Aster Yellows witches'-broom phytoplasma SAP05 (33-135) (natural protein, UniProt Q2NK94 33-135, looked up)
chain: APNEEFVGDMRIVNVNLSNIDILKKHETFKKYFDFTLTGPRYNGNIAEFAMIWKIKNPPLNLLGVFFDDGTRDDEDDKYILEELKQIGNGAKNMYIFWQYEQK
- Kd [2]: 400 nM

B2: AYWB_SAP05 (33-135), tag removed, as in the purified complex (natural protein, UniProt Q2NK94 33-135, looked up)
chain: APNEEFVGDMRIVNVNLSNIDILKKHETFKKYFDFTLTGPRYNGNIAEFAMIWKIKNPPLNLLGVFFDDGTRDDEDDKYILEELKQIGNGAKNMYIFWQYEQK
- stoichiometry N [3]: 1
